Measured values as given in patent US20050244864A1, “Development and use of fluorescent probes of unbound analytes” (priority 2004, published 2005).

Columns and labels:
Format in all cases: binding
[1] = Probe fluorescence ratio response to palmitate:BSA complex, relative to ADIFAB2 (ΔR/ΔRAD2); conditions: fluorescence response (R-Ro) relative to ADIFAB2; palmitate
Procedure: (§1) The intensity ratio (“R” value) for a given probe is determined. The ratio is calculated using the following formula: R=Fλ1/Fλ2 wherein, Fλ1, is the measured fluorescence intensities (intensity of sample with probe present minus intensity of sample without probe present) at wavelength 1 and Fλ2 is the measured fluorescence intensities (intensity of sample with probe present minus intensity of sample without probe present) at wavelength 2. Then, for a given probe, ΔR, the difference in R value between the measurement in the presence of the analyte and in the absence of the analyte, is calculated as follows: ΔR=R+analyte−R0 The ΔR value for a given probe is then compared to a reference probe, for example, ADIFAB or ADIFAB2, by ΔR/ΔRreference. This value is an indication of how dissimilar the new probe (derived by mutation of the template) is to the reference. By this method, probes with new and useful characteristics may be identified. Measurements of fluorescence intensities are obtained using standard techniques.
(§2) Mutant probes were screened in 96-well plates by fluorescence response to five fatty acids: arachidonate, linolenate, linoleate, oleate, and palmitate. Each fatty acid was prepared as a complex with BSA by slow addition of 50 mM stocks of fatty acid sodium salts at pH 11 to 600 μM BSA in HEPES buffer. During the formation of complexes, 15 μL aliquots were periodically measured with the reference probe, ADIFAB2, to determine the ΔR value upon excitation at 375 nm and fluorescence emission at 550 and 457 nm using a Fluorolog-3 spectrofluorometer (Jobin Yvon) (Richieri et al, Molecular and Cellular Biochemistry (1999), 192:87-94 & Richieri et al, J. Biol. Chem. (1996), 271:31068-31074). Complexes were prepared such that the final ΔR was approximately 0.4 which correspond to [FFAu] ranging from 100 to 1000 nM depending on FFA type. These complexes buffer or clamp the FFAu levels at fixed values and therefore ensure the accurate comparison of different probes with the same FFAu concentrations. In contrast, addition of FFAu alone (i.e. uncomplexed FFA) introduces considerable uncertainty in comparing different probes because the FFAu level will be affected by binding to the dispensing device, the walls of the multi-well plates and to the probe itself. Thus, the terms “buffer” and “clamp” as used in this particular context herein are taken to mean the ability of a carrier macromolecule to complex with an unbound metabolite so that the unbound metabolite is presented accurately for measurement purposes and is prevented from non-specific binding such as binding to laboratory apparatus.
(§3) Plates were prepared and read in two stages. First, complexes and fatty acid free BSA were diluted to 6 μM BSA in HEPES and added to the 96-well plate at 300 μL per well. A MultiProbe II HT (Perkin Elmer) (an automated liquid handling system) was used to facilitate plate preparation for high throughput screening, but any automated or manual pipetting system will suffice. The background fluorescence was then measured at the same wavelengths as used for ADIFAB2 using a Fluorolog-3 spectrofluorometer with an external Micromax 384 fluorescence plate reader (Jobin Yvon). In the second stage, 30 μL aliquots of the mutant probes were added to multiple wells of the plate, one for each fatty acid and one with fatty acid free BSA only, and the fluorescence intensity at each wavelength was again measured on the plate reader. After subtraction of the background fluorescence, the fluorescence ratio of each well was calculated.
(§4) The fluorescence response was quantitatively compared to ADIFAB2 to search for changes in magnitude and fatty acid profile; for example the response to one fatty acid relative to another. For each probe the ratio differences (AR) between wells with each fatty acid compared to a corresponding well with fatty acid free BSA were recorded. […]

[2] = Probe fluorescence ratio response to linoleate:BSA complex, relative to ADIFAB2 (ΔR/ΔRAD2); conditions: fluorescence response (R-Ro) relative to ADIFAB2; linoleate
Procedure: as §1, §2, §3, §4

[3] = Probe fluorescence ratio response to linolenate:BSA complex, relative to ADIFAB2 (ΔR/ΔRAD2); conditions: fluorescence response (R-Ro) relative to ADIFAB2; linolenate
Procedure: as §1, §2, §3, §4

[4] = Probe fluorescence ratio response to oleate:BSA complex, relative to ADIFAB2 (ΔR/ΔRAD2); conditions: fluorescence response (R-Ro) relative to ADIFAB2; oleate
Procedure: as §1, §2, §3, §4

[5] = Probe fluorescence ratio response to arachidonate:BSA complex, relative to ADIFAB2 (ΔR/ΔRAD2); conditions: fluorescence response (R-Ro) relative to ADIFAB2; arachidonate
Procedure: as §1, §2, §3, §4

B1: L72A: acrylodan-labeled rI-FABP clone with L72A (the template mutein) (protein, listed as Rattus norvegicus)
chain: AFDGTWKVDRNENYEKFMEKMGINVVKRKLGAHDNLKLTITQEGNKFTVKESSNFRNIDVVFELGVDFAYSAADGTELTGTWTMEGNKLVGKFKRVDNGKELIAVREISGNELIQTYTYEGVEAKRIFKKDRGHHHHHH
modifications: acrylodan label; MUTAGEN (72)...(72) rat intestinal fatty acid binding protein with alanine substitution for leucine at position 72
With B1 the “ΔR/ΔRAD2 PA” value [1] was 1.02, the “ΔR/ΔRAD2 LA” value [2] was 1.14 and the “ΔR/ΔRAD2 LNA” value [3] was 1.16. The “ΔR/ΔRAD2 OA” value [4] was 1.15 and the “ΔR/ΔRAD2 AA” value [5] was 1.12.

B2: D74F, L72A: acrylodan-labeled rI-FABP mutein D74F, L72A (protein)
chain: AFDGTWKVDRNENYEKFMEKMGINVVKRKLGAHDNLKLTITQEGNKFTVKESSNFRNIDVVFELGVDFAYSAAFGTELTGTWTMEGNKLVGKFKRVDNGKELIAVREISGNELIQTYTYEGVEAKRIFKKE
For B2, the “ΔR/ΔRAD2 PA” value [1] was 0.93, the “ΔR/ΔRAD2 LA” value [2] was 0.67 and the “ΔR/ΔRAD2 LNA” value [3] was 1.04. The “ΔR/ΔRAD2 OA” value [4] was 0.51 and the “ΔR/ΔRAD2 AA” value [5] was 0.44.

B3: Y117S, L72A: acrylodan-labeled rI-FABP mutein Y117S, L72A (protein)
chain: AFDGTWKVDRNENYEKFMEKMGINVVKRKLGAHDNLKLTITQEGNKFTVKESSNFRNIDVVFELGVDFAYSAADGTELTGTWTMEGNKLVGKFKRVDNGKELIAVREISGNELIQTSTYEGVEAKRIFKKE
With B3 the “ΔR/ΔRAD2 PA” value [1] was 0.55, the “ΔR/ΔRAD2 LA” value [2] was 1.42 and the “ΔR/ΔRAD2 LNA” value [3] was 1.07. For the same molecule, the “ΔR/ΔRAD2 OA” value [4] was 1.19 and the “ΔR/ΔRAD2 AA” value [5] was 1.35.

B4: W82F, L72A: acrylodan-labeled rI-FABP mutein W82F, L72A (protein)
chain: AFDGTWKVDRNENYEKFMEKMGINVVKRKLGAHDNLKLTITQEGNKFTVKESSNFRNIDVVFELGVDFAYSAADGTELTGTFTMEGNKLVGKFKRVDNGKELIAVREISGNELIQTYTYEGVEAKRIFKKE
With B4 the “ΔR/ΔRAD2 PA” value [1] was 0.41, the “ΔR/ΔRAD2 LA” value [2] was 1.08 and the “ΔR/ΔRAD2 LNA” value [3] was 0.76. The “ΔR/ΔRAD2 OA” value [4] was 0.78 and the “ΔR/ΔRAD2 AA” value [5] was 0.68.

B5: L72M: acrylodan-labeled rI-FABP mutein L72M (protein)
chain: AFDGTWKVDRNENYEKFMEKMGINVVKRKLGAHDNLKLTITQEGNKFTVKESSNFRNIDVVFELGVDFAYSMADGTELTGTWTMEGNKLVGKFKRVDNGKELIAVREISGNELIQTYTYEGVEAKRIFKKE
For B5, the “ΔR/ΔRAD2 PA” value [1] was 1.32, the “ΔR/ΔRAD2 LA” value [2] was 1.46 and the “ΔR/ΔRAD2 LNA” value [3] was 1.35. For the same molecule, the “ΔR/ΔRAD2 OA” value [4] was 1.49 and the “ΔR/ΔRAD2 AA” value [5] was 1.31.

B6: R106W, L72A: acrylodan-labeled rI-FABP mutein R106W, L72A (protein)
chain: AFDGTWKVDRNENYEKFMEKMGINVVKRKLGAHDNLKLTITQEGNKFTVKESSNFRNIDVVFELGVDFAYSAADGTELTGTWTMEGNKLVGKFKRVDNGKELIAVWEISGNELIQTYTYEGVEAKRIFKKE
With B6 the “ΔR/ΔRAD2 PA” value [1] was 0.41, the “ΔR/ΔRAD2 LA” value [2] was 1.04 and the “ΔR/ΔRAD2 LNA” value [3] was 1.03. For the same molecule, the “ΔR/ΔRAD2 OA” value [4] was 0.99 and the “ΔR/ΔRAD2 AA” value [5] was 1.11.

B7: L72G: acrylodan-labeled rI-FABP mutein L72G (protein)
chain: AFDGTWKVDRNENYEKFMEKMGINVVKRKLGAHDNLKLTITQEGNKFTVKESSNFRNIDVVFELGVDFAYSGADGTELTGTWTMEGNKLVGKFKRVDNGKELIAVREISGNELIQTYTYEGVEAKRIFKKE
In the case of B7, the “ΔR/ΔRAD2 PA” value [1] is reported as 0.26, the “ΔR/ΔRAD2 LA” value [2] is reported as 0.48 and the “ΔR/ΔRAD2 LNA” value [3] is reported as 0.48. For the same molecule, the “ΔR/ΔRAD2 OA” value [4] was 0.52 and the “ΔR/ΔRAD2 AA” value [5] was 0.62.

B8: L1P2 F7: acrylodan-labeled rI-FABP mutein: Y14 I, L38 wt, L72 G, Y117 V (protein, UniProt P02693 2-132, looked up, variant Y14I L72G Y117V)
Fatty acid-binding protein, …: AFDGTWKVDRNENIEKFMEKMGINVVKRKLGAHDNLKLTITQEGNKFTVKESSNFRNIDVVFELGVDFAYSGADGTELTGTWTMEGNKLVGKFKRVDNGKELIAVREISGNELIQTVTYEGVEAKRIFKKE
modifications: acrylodan label
notes: acrylodan-labeled rI-FABP mutein: Y14 I, L38 wt, L72 G, Y117 V
In the case of B8, the “ΔR/ΔRAD2 PA” value [1] is reported as 0.1, the “ΔR/ΔRAD2 LA” value [2] is reported as 0.6 and the “ΔR/ΔRAD2 LNA” value [3] is reported as 0.5. For the same molecule, the “ΔR/ΔRAD2 OA” value [4] was 0.3 and the “ΔR/ΔRAD2 AA” value [5] was 0.9.

B9: A73I, L72A: acrylodan-labeled rI-FABP mutein A73I, L72A (protein)
chain: AFDGTWKVDRNENYEKFMEKMGINVVKRKLGAHDNLKLTITQEGNKFTVKESSNFRNIDVVFELGVDFAYSAIDGTELTGTWTMEGNKLVGKFKRVDNGKELIAVREISGNELIQTYTYEGVEAKRIFKKE
For B9, the “ΔR/ΔRAD2 PA” value [1] was −0.04, the “ΔR/ΔRAD2 LA” value [2] was −0.04 and the “ΔR/ΔRAD2 LNA” value [3] was 0.03. The “ΔR/ΔRAD2 OA” value [4] was −0.04 and the “ΔR/ΔRAD2 AA” value [5] was 0.38.

B10: A73F, L72A: acrylodan-labeled rI-FABP mutein A73F, L72A (protein)
chain: AFDGTWKVDRNENYEKFMEKMGINVVKRKLGAHDNLKLTITQEGNKFTVKESSNFRNIDVVFELGVDFAYSAFDGTELTGTWTMEGNKLVGKFKRVDNGKELIAVREISGNELIQTYTYEGVEAKRIFKKE
In the case of B10, the “ΔR/ΔRAD2 PA” value [1] is reported as 1.13, the “ΔR/ΔRAD2 LA” value [2] is reported as 1.23 and the “ΔR/ΔRAD2 LNA” value [3] is reported as 1.86. For the same molecule, the “ΔR/ΔRAD2 OA” value [4] was 0.73 and the “ΔR/ΔRAD2 AA” value [5] was 1.21.

B11: L1P12 F12: acrylodan-labeled rI-FABP mutein: Y14 L, L38 wt, L72 G, Y117 V (protein, UniProt P02693 2-132, looked up, variant Y14L L72G Y117V)
Fatty acid-binding protein, …: AFDGTWKVDRNENLEKFMEKMGINVVKRKLGAHDNLKLTITQEGNKFTVKESSNFRNIDVVFELGVDFAYSGADGTELTGTWTMEGNKLVGKFKRVDNGKELIAVREISGNELIQTVTYEGVEAKRIFKKE
modifications: acrylodan label
notes: acrylodan-labeled rI-FABP mutein: Y14 L, L38 wt, L72 G, Y117 V
With B11 the “ΔR/ΔRAD2 PA” value [1] was 0.1, the “ΔR/ΔRAD2 LA” value [2] was 0.5 and the “ΔR/ΔRAD2 LNA” value [3] was 0.5. The “ΔR/ΔRAD2 OA” value [4] was 0.3 and the “ΔR/ΔRAD2 AA” value [5] was 0.9.

B12: L78F, L72A: acrylodan-labeled rI-FABP mutein L78F, L72A (protein)
chain: AFDGTWKVDRNENYEKFMEKMGINVVKRKLGAHDNLKLTITQEGNKFTVKESSNFRNIDVVFELGVDFAYSAADGTEFTGTWTMEGNKLVGKFKRVDNGKELIAVREISGNELIQTYTYEGVEAKRIFKKE
For B12, the “ΔR/ΔRAD2 PA” value [1] was 0.91, the “ΔR/ΔRAD2 LA” value [2] was 2 and the “ΔR/ΔRAD2 LNA” value [3] was 2.05. For the same molecule, the “ΔR/ΔRAD2 OA” value [4] was 1.83 and the “ΔR/ΔRAD2 AA” value [5] was 2.04.

B13: Y117A, L72A: acrylodan-labeled rI-FABP mutein Y117A, L72A (protein)
chain: AFDGTWKVDRNENYEKFMEKMGINVVKRKLGAHDNLKLTITQEGNKFTVKESSNFRNIDVVFELGVDFAYSAADGTELTGTWTMEGNKLVGKFKRVDNGKELIAVREISGNELIQTATYEGVEAKRIFKKE
For B13, the “ΔR/ΔRAD2 PA” value [1] was 0.32, the “ΔR/ΔRAD2 LA” value [2] was 1.01 and the “ΔR/ΔRAD2 LNA” value [3] was 0.62. The “ΔR/ΔRAD2 OA” value [4] was 0.93 and the “ΔR/ΔRAD2 AA” value [5] was 1.27.
